Target: T1, TERT (telomerase reverse transcriptase), catalytic subunit of telomerase (human, UniProt O14746 1-1132)
T1 construct: also called human TERT
Assay: co-expression in HEK293T cells, immunoprecipitation with anti-HA antibody, Western blotting with anti-TERT antibody (FIG. 3)
Method: After culturing 4×10⁵ HEK293T cells at 37° C. overnight under the atomosphere of 5% CO₂ (in a dish with 60 mm diameter), 2 μg of the expression plasmid of HA-tagged MAPKAPK3 or pcDNA3.1 (+) as a negative control was transfected together with 2 μg of TERT expression plasmid using FuGENE6 Transfection Reagent (Roche). After 2 days of culturing, cells were washed with ice-cold phosphate buffered physiologically saline (PBS (−)), collected and suspended in 500 μl of cell lysis buffer (20 mM Tris-HCl, pH7.4/150 mM NaCl/1 mM ethylenediaminetetraacetic acid (EDTA)/2.5 mM sodium pyrophsphate)/1 mM β-glycerophsphate/1 mM Na₃VO₄/protease inhibitor cocktail), and left to stand on ice for 10 minutes. Subsequently, centrifugation was conducted at 4° C. for 10 minutes at 14,000 rpm to collect the supernatant for use as a cell lysate. Then, 10 μl of agarose-conjugated normal rabbit IgG (Sigma) was added to 500 μl of the cell lysate and subjected to overturned mixing at 4° C. for 30 minutes, followed by subjecting to centrifugation to collect the supernatant. 10 μl of agarose-conjugated anti-HA antibody (Y11, SantaCruz) was added to the collected supernatant, and subjected to overturned mixing at 4° C. overnight, followed by subjecting to centrifugation to collect the agarose beads. […] Subsequently, the binding protein was detected by Western blotting using an anti-TERT antibody (L-20, SantaCruz). […]

T1 sequence (O14746 whole entry): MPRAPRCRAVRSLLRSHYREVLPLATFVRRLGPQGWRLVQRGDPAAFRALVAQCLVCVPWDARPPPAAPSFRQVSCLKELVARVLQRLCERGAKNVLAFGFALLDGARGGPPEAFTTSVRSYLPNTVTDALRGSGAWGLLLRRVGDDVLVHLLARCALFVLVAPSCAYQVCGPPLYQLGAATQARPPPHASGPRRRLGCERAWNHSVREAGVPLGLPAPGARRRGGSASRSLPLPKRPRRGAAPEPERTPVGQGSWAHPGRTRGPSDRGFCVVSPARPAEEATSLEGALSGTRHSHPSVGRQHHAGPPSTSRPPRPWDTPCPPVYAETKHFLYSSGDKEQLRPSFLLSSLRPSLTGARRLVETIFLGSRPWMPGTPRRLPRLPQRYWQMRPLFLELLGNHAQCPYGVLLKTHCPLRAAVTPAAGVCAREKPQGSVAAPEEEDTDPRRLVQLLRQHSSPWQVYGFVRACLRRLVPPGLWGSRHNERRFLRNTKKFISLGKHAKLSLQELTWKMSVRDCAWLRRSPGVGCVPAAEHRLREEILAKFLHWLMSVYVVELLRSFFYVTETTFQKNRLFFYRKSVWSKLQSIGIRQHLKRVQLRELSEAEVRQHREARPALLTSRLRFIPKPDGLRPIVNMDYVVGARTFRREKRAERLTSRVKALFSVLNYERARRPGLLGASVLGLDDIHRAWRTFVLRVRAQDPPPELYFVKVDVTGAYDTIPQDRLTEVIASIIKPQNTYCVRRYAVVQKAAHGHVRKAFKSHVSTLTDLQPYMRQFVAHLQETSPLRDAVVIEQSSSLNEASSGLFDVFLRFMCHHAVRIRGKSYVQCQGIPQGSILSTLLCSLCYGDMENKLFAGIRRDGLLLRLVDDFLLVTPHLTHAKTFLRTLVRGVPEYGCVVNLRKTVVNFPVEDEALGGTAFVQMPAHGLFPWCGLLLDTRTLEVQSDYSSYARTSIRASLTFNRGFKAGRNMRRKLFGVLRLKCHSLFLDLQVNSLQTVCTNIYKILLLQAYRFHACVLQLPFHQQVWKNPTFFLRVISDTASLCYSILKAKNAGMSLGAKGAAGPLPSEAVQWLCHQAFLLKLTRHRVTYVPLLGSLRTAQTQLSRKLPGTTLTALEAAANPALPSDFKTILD

B1: N-terminal HA-tagged MAPKAPK3 (enzyme)
chain: MDGETAEEQGGPVPPPVAPGGPGLGGAPGGRREPKKYAVTDDYQLSKQVLGLGVNGKVLECFHRRTGQKCALKLLYDSPKARQEVDHHWQASGGPHIVCILDVYENMHHGKRCLLIIMECMEGGELFSRIQERGDQAFTEREAAEIMRDIGTAIQFLHSHNIAHRDVKPENLLYTSKEKDAVLKLTDFGFAKETTQNALQTPCYTPYYVAPEVLGPEKYDKSCDMWSLGVIMYILLCGFPPFYSNTGQAISPGMKRRIRLGQYGFPNPEWSEVSEDAKQLIRLLLKTDPTERLTITQFMNHPWINQSMVVPQTPLHTARVLQEDKDHWDEVKEEMTSALATMRVDYDQVKIKDLKTSNNRLLNKRRKKQAGSSSASQGCNNQ
notes: Expressed in HEK293T cells from pcDNA3.1(+); also called HA-MAPKAPK3; not shown: HA-tag at the N-terminus
binding result: binds
